Measured values reported in PMC3642112.

Assays:
[1] = target: human translin (wild-type) (human, UniProt Q15631 1-228); assay: EMSA
[2] = target: T1, translin (wild-type, native) (Drosophila melanogaster, UniProt Q7JVK6 1-235); assay: EMSA
T1 sequence: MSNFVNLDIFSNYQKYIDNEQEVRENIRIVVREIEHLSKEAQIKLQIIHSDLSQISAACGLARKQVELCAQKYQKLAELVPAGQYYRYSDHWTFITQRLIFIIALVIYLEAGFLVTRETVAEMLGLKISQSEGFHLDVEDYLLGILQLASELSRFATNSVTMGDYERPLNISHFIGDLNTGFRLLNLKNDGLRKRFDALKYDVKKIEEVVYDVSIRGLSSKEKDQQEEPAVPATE

human translin (wild-type), sequence (Q15631 whole entry): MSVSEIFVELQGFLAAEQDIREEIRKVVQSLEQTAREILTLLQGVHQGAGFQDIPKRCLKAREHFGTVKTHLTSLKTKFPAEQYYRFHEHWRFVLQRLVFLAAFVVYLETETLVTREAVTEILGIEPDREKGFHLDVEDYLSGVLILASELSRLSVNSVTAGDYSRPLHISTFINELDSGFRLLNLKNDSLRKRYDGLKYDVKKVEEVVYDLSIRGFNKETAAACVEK

Does GCCCTCCTGCCCTCCTTCCGCGGG (ssDNA) [Bcl-CL1 24-mer ssDNA] bind [1]?
Result: binds

Does GCCCTCCTGCCCTCCTTCCGCGGG (ssDNA) [Bcl-CL1 24-mer ssDNA] bind [2]?
Result: binds
